Legend:
PARP2;HPF1 = PARP2;HPF1 (Homo sapiens?;Homo sapiens?, UniProt Q9UGN5;Q9NWY4 1-583;1-346, |); experiment: fluorescence polarization (release of labelled DNA on autoPARylation); 2 uM HPF1, PARPi; DNA released by 2 mM NAD+; 50 mM Tris-HCl pH 8.0, 50 mM NaCl, 1 mM MgCl2, 0.1 mM EDTA, 0.01% IGEPAL; temperature not stated; details: protein: recombinant;recombinant; (nickel column); copies: 1;1; label: fluorescein (5') in the FP DNA-release assay; blunt
PARP1;HPF1 = PARP1;HPF1 (Homo sapiens?;Homo sapiens?, UniProt P09874;Q9NWY4 1-1014;1-346, |); experiment: as above; details: protein: recombinant;recombinant; (nickel column); copies: 1;1; label: fluorescein (5') in the FP DNA-release assay; blunt
Sequence of PARP1;HPF1 (P09874 whole entry, chain 1 of 2): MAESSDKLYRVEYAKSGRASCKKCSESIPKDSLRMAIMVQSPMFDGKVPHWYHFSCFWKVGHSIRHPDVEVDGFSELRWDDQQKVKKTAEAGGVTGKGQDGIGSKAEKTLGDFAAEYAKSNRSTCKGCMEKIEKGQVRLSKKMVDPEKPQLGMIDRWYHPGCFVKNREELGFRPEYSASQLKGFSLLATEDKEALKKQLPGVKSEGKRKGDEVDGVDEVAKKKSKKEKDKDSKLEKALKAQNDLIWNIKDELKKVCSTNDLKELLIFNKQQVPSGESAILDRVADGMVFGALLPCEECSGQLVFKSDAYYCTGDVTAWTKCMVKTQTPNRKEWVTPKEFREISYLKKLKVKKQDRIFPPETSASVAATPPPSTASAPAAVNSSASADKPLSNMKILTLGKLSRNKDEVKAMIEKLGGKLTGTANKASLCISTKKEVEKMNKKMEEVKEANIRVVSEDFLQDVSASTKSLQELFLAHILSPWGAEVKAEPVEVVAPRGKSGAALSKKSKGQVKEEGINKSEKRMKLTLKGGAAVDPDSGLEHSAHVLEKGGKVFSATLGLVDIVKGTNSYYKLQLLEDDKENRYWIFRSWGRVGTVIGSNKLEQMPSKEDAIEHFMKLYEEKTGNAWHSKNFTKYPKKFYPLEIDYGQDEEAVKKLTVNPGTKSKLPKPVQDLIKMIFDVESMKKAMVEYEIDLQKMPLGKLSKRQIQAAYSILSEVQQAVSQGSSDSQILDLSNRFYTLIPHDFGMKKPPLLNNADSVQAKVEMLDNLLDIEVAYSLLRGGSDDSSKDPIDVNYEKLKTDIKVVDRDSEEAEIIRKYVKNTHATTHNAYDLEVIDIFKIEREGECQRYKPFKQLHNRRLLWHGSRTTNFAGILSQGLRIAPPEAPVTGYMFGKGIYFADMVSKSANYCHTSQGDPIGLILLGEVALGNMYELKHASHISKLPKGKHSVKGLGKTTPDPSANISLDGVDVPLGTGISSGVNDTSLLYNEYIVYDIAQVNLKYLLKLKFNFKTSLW
Sequence of PARP1;HPF1 (Q9NWY4 whole entry, chain 2 of 2): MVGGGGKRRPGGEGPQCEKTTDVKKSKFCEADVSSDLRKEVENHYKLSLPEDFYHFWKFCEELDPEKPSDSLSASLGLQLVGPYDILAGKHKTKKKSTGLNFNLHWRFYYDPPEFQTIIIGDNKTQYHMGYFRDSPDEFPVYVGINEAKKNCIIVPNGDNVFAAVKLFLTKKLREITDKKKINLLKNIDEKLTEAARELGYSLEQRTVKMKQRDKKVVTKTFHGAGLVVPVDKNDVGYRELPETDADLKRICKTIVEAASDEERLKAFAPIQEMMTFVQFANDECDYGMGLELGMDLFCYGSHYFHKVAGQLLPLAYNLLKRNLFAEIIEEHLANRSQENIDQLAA

PARP2 = PARP2 (UniProt Q9UGN5 1-583); experiment: fluorescence polarization (release of labelled DNA on autoPARylation); PARPi present or absent; DNA released by 2 mM NAD+, retained without NAD+; 50 mM Tris-HCl pH 8.0, 50 mM NaCl, 1 mM MgCl2, 0.1 mM EDTA, 0.01% IGEPAL; temperature not stated; details: protein: recombinant; label: fluorescein (5') in the FP DNA-release assay; blunt
Sequence of PARP2 (Q9UGN5 whole entry): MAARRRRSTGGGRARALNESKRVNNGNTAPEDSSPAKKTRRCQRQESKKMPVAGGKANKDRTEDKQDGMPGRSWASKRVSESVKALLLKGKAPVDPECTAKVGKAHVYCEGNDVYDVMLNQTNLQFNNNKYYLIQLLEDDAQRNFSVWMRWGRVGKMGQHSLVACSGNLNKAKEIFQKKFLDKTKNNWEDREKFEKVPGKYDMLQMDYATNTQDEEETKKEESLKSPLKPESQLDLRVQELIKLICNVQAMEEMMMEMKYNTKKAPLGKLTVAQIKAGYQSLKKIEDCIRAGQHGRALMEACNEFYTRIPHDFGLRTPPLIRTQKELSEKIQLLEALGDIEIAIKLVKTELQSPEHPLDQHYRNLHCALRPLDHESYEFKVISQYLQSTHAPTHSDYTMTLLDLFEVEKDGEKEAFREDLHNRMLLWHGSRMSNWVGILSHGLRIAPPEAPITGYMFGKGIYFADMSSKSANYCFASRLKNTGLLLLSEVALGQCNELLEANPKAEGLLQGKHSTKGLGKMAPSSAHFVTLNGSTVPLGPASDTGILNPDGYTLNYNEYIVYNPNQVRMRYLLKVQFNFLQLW

PARP1 = PARP1 (UniProt P09874 1-1014); experiment: as above; details: protein: recombinant; label: fluorescein (5') in the FP DNA-release assay; blunt
Sequence of PARP1 (P09874 whole entry): as the sequence (P09874 whole entry, chain 1 of 2) above

Measured: binding result

Sequence of PARP2;HPF1 (Q9UGN5 whole entry, chain 1 of 2): as the sequence (Q9UGN5 whole entry) above
Sequence of PARP2;HPF1 (Q9NWY4 whole entry, chain 2 of 2): as the sequence (Q9NWY4 whole entry, chain 2 of 2) above

B1: p18mer (dsDNA)
DNA 1: GGGTTGCGGCCGCTTGGG
DNA 2: CCCAAGCGGCCGCAACCC
modifications: 5'-phosphate
binds: all assays above

Source: paper PMC7854685, “Histone Parylation factor 1 contributes to the inhibition of PARP1 by cancer drugs”
